# Data published in FireProtDB (doi:10.1073/pnas.1507829112).
# Several values for one entry are separate records, joined by “and”; a condition that tells them apart may be missing. Equal entries are not always repeated.
# B1: G133D, Q6VS32 (parent)
# chain: CSSGGGGVAADIGAGLADALTAPLDHKDKSLQSLTLDQSVRKNEKLKLAAQGAEKTYGNGDSLNTGKLKNDKVSRFDFIRQIEVDGQLITLESGEFQIYKQDHSAVVALQIEKINNPDKIDSLINQRSFLVSGLGGEHTAFNQLPSGKAEYHGKAFSSDDPNGRLHYSIDFTKKQGYGRIEHLKTPEQNVELASAELKADEKSHAVILGDTRYGGEEKGTYHLALFGDRAQEIAGSATVKIREKVHEIGIAGKQ
# Variants of: B1
# Conditions: Neisseria meningitidis; pH 7; Thermal; DSC; PBS; whole UniProt chain shown
row,Variant,unfolding enthalpy (calorimetric)
1,G133D,96.8 kcal/mol and 96.1 kcal/mol
2,L130R G133D,56.3 kcal/mol and 94 kcal/mol
